Consider one substance from paper PMC8595651.

The assay deals with Fibrillar type I collagen (PureCol atelo-type I collagen, Advanced Biomatrix Cat# 5005) (UniProt P02453). Briefly: ELISA.
Sequence of UniProt P02453 (P02453 162-1217, chain 1 of 2): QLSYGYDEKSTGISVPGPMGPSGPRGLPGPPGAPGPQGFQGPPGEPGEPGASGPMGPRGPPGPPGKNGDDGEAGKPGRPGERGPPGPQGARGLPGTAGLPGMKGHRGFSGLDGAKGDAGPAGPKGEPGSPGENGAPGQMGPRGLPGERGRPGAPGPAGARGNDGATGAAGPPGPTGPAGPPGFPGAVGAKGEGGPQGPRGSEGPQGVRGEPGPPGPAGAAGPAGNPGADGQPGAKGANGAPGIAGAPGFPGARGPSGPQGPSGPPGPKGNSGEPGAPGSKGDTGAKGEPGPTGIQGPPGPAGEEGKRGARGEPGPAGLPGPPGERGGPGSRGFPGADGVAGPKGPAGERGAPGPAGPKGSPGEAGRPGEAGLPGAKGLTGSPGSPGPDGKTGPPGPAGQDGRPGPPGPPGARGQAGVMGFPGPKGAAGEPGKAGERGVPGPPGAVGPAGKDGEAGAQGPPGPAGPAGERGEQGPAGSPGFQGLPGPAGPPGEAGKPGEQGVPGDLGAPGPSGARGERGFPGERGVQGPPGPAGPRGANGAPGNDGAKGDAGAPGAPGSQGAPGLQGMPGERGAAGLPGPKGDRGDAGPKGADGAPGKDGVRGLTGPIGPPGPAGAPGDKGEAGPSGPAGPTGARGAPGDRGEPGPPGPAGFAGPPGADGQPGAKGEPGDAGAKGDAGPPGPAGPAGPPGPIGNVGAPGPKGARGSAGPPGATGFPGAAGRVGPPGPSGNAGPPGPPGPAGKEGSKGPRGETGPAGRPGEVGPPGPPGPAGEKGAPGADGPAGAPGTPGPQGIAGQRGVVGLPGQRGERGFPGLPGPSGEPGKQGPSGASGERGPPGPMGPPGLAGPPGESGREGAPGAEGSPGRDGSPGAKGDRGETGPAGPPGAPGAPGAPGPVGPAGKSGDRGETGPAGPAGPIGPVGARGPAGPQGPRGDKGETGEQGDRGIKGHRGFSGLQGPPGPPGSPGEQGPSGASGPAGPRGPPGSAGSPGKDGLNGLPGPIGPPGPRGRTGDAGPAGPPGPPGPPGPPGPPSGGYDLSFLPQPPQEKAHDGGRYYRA
Sequence of UniProt P02453 (P02465 80-1117, chain 2 of 2, further chain): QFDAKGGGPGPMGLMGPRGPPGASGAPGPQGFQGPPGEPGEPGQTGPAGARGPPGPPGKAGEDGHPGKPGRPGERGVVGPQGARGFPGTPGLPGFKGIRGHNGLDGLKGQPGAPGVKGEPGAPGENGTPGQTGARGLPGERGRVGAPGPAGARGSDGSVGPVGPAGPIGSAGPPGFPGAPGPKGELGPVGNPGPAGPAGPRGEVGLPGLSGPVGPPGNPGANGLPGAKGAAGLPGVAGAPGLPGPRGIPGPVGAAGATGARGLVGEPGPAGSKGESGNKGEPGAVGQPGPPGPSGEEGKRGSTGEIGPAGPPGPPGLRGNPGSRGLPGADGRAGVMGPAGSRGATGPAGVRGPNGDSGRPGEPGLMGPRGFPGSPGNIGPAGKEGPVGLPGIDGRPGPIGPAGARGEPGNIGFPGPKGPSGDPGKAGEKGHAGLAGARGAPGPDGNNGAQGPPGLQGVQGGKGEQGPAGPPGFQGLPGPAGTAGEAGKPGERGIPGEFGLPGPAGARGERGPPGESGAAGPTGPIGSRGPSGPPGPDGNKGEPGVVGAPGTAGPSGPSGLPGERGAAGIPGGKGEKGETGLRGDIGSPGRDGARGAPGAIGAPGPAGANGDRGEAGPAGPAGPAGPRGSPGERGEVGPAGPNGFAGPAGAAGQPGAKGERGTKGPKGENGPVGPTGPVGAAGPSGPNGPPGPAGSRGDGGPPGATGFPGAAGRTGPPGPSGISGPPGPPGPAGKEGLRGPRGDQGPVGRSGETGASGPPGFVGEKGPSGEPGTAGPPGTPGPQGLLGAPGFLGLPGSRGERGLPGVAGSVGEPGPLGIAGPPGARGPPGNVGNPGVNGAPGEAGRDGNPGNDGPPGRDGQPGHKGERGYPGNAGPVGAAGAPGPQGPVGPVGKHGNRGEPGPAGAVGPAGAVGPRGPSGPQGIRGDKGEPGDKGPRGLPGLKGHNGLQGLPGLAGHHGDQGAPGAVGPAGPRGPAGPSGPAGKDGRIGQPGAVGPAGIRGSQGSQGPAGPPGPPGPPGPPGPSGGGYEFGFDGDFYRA

As for “WISP1ΔCT (form of WISP1 lacking a CT-domain), overexpressed in 4T1 cells (conditioned medium) (domain or fragment)”, the binding relative to that of WISP1 at equal concentrations amounted to 75%.
